Measured values published in patent publication US20250122311A1 (YEDA RESEARCH AND DEVELOPMENT, published 2025).
Blank lines part the entries; values can stand above or below the binder they belong to.

Assays:
[1] = target: T1, recombinant prostate-specific antigen (PSA) (human, UniProt P07288 25-261, limits assumed); assay: ELISA of the protein G purified antibody on recombinant PSA
T1 construct: also called recombinant PSA; recombinantly produced PSA

[2] = target: T1, recombinant prostate-specific antigen …; assay: immunoprecipitation with protein G after incubation with recombinant PSA; blot developed with a commercial anti-PSA antibody
Protocol: (§1) FIGS. 4A-E present anti-PSA clone 10 humanization: FIG. 4A. Four anti-PSA antibodies were expressed as chimeras and expression was measured through ELISA of the supernatant SEQ ID Nos.: 83/84, 85/86, 87/88, 81/82). […] FIG. 4B. Expression of five humanized designs for clone 10 was measured through ELISA of the supernatant. […] FIG. 4C. […] FIG. 4D. […] Membrane was developed with a commercial anti-PSA antibody. […] FIG. 4E.

[3] = target: T2, natively expressed PSA (supernatant of LNCaP cells) (human, UniProt P07288 25-261); assay: immunoprecipitation with protein G after overnight incubation with LNCaP supernatant; blot developed with a commercial anti-PSA antibody
T2 construct: also called native PSA
T2 sequence (P07288 25-261 limits assumed): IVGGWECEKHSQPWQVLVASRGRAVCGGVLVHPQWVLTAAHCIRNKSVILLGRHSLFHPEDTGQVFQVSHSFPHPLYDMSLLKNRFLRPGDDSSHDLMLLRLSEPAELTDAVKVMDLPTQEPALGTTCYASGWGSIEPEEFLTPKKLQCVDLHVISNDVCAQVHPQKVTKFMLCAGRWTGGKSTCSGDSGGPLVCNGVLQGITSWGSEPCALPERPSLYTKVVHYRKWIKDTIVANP
Protocol: as §1

hen-egg white lysozyme [4] = target: T3, hen-egg white lysozyme (hen, UniProt P00698 19-147); assay: yeast surface display of scFv, 240 nM lysozyme
T3 construct: also called HEWL
T3 sequence (P00698 19-147 limits assumed): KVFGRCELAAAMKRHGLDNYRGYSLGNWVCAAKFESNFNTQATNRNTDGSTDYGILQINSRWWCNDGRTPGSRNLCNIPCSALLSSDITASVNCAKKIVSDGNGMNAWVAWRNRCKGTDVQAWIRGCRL

hen-egg white lysozyme [5] = target: T3, hen-egg white lysozyme; assay: bilayer interferometry, IgG1 loaded on the sensor at 1 ug/mL, lysozyme at 1000, 250, 100, 25 and 10 nM
Protocol: FIGS. 5A-D present anti lysozyme antibody SDR-grafting: FIG. 5A. […] FIG. 5B. […] FIG. 5C. […] FIG. 5D. […] Lysozyme was at concentrations of […] and 1 μg/mL antibody was loaded onto the sensor.

hen-egg white lysozyme [6] = target: T3, hen-egg white lysozyme; assay: surface plasmon resonance, Fab

T1 sequence (P07288 25-261 limits assumed): as the sequence (P07288 25-261 limits assumed) above

B1: Anti-PSA Design 1 (humanized clone 10) (antibody, V domains shown)
VH: QVQLVQSGAEVKKPGSSVKVSCKASGYSFTDYNMNWVRQAPGQGLEWIGVISPDYGTPSYAQKFQGRVTITADESTSTAYMELSSLRSEDTAVYYCARGKGNYVVFAYWGQGTLVTVSS
VL: DIQMTQSPSSLSASVGDRVTITCKASQSVVNNVVWYQQKPGKAPKLLIYYASNRYSGVPSRFSGSGSGTDFTLTISSLQPEDFATYYCQQHYTSPLTFGPGTKVDIKR
notes: Full-length human IgG1/kappa chains; also called PSA1
binding result [1]: binds

B2: Anti-PSA Design 2 (humanized clone 10) (antibody, V domains shown)
VH: QVQLVQSGAEVKKPGSSVKVSCKASGYSFTDYNMNWVRQAPGQGLEWIGVISPDYGTPSYAQKFQGRVTITADESTSTAYMELSSLRSEDTAVYYCARGKGNYVVFAYWGQGTLVTVSS
VL: DIVMTQTPLSLSVTPGQPASISCKASQSVVNNVVWYLQKPGQPPQLLIYYASNRYSGVPDRFSGSGSGTDFTLKISRVEAEDVGVYYCQQHYTSPLTFGPGTKVDIKR
notes: Full-length human IgG1/kappa chains; also called PSA2
binding result [1]: binds

B3: Anti-PSA Design 3 (humanized clone 10) (antibody, V domains shown)
VH: EVQLVQSGAEVKKPGATVKISCKVSGYSFTDYNMNWVQQAPGKGLEWIGVISPDYGTPSYAEKFQGRVTITADTSTDTAYMELSSLRSEDTAVYYCARGKGNYVVFAYWGQGTLVTVSS
VL: DIVMTQSPDSLAVSLGERATINCKASQSVVNNVVWYQQKPGQPPKLLIYYASNRYSGVPDRFSGSGSGTDFTLTISSLQAEDVAVYYCQQHYTSPLTFGPGTKVDIKR
notes: Full-length human IgG1/kappa chains; also called PSA3
binding result [1]: binds

B7: Anti-HEWL Design 1, human IgG1 (antibody, V domains shown)
VH: EVQLVQSGAEVKKPGATVKISCKVSGYTFSTYWMEWVQQAPGKGLEWMGEVLPGSGSTYYAEKFQGRVTITADTSTDTAYMELSSLRSEDTAVYYCARGDGYFQHWGQGTLVTVSS
VL: DIQMTQSPSSLSASVGDRVTITCRASQSISSNLNWYQQKPGKAPKLLIYYASSLQSGVPSRFSGSGSGTDFTLTISSLQPEDFATYYCQQSNSWPRTFGPGTKVDIKR
notes: also called Des 1; Des1
Kd (hen-egg white lysozyme [5]): 11 nM

B8: Anti-HEWL Design 1, human Fab (Fab, V domains shown)
VH: EVQLVQSGAEVKKPGATVKISCKVSGYTFSTYWMEWVQQAPGKGLEWMGEVLPGSGSTYYAEKFQGRVTITADTSTDTAYMELSSLRSEDTAVYYCARGDGYFQHWGQGTLVTVSS
VL: DIQMTQSPSSLSASVGDRVTITCRASQSISSNLNWYQQKPGKAPKLLIYYASSLQSGVPSRFSGSGSGTDFTLTISSLQPEDFATYYCQQSNSWPRTFGPGTKVDIKR
notes: The Fab heavy chain ends in a His tag; also called hαHEWL; design 1 (Fab)
Kd (hen-egg white lysozyme [6]): 41.6 nM

More lines, now with the values ahead:

binding result [2]: binds
binding result [3]: binds
B4: Anti-PSA Design 4 (humanized clone 10) (antibody, V domains shown)
VH: QVQLQESGPGLVKPSETLSLTCTVSGYSFTDYNMNWIRQPPGKGLEWIGVISPDYGTPSYNPSLKSRVTISVDTSKNQFSLKLSSVTAADTAVYYCARGKGNYVVFAYWGQGTLVTVSS
VL: DIQMTQSPSSLSASVGDRVTITCKASQSVVNNVVWYQQKPGKAPKLLIYYASNRYSGVPSRFSGSGSGTEFTLTISSLQPEDFATYYCQQHYTSPLTFGPGTKVDIKR
notes: Full-length human IgG1/kappa chains; also called PSA4

binding result [2]: binds
B5: Anti-PSA Design 5 (humanized clone 10) (antibody, V domains shown)
VH: EVQLVQSGAEVKKPGATVKISCKVSGYSFTDYNMNWVQQAPGKGLEWIGVISPDYGTPSYAEKFQGRVTITADTSTDTAYMELSSLRSEDTAVYYCARGKGNYVVFAYWGQGTLVTVSS
VL: DIQMTQSPSSLSASVGDRVTITCKASQSVVNNVVWYQQKPGKAPKLLIYYASNRYSGVPSRFSGSGSGTEFTLTISSLQPEDFATYYCQQHYTSPLTFGPGTKVDIKR
notes: Full-length human IgG1/kappa chains; also called PSA5

binding result (hen-egg white lysozyme [4]): binds
B6: Anti-HEWL Design 6, scFv on yeast surface (scFv, V domains shown, not shown: large carriers; small tags and cut ends)
VH: EVQLVQSGAEVKKPGATVKISCKVSGYTFSTYWMEWVQQAPGKGLEWMGEVLPGSGSTYYAEKFQGRVTITADTSTDTAYMELSSLRSEDTAVYYCARGDGYFQHWGQGTLVTVSS
VL: EIVLTQSPDFQSVTPKEKVTITCRASQSISSNLHWYQQKPDQSPKLLIKYASQSFSGVPSRFSGSGSGTDFTLTINSLEAEDAATYYCHQSNSWPRTFGPGTKVDIK
notes: also called Des6 (scFv format)
